Results taken from publication doi:10.1101/2021.08.16.456439.

Legend:
CyPet-Ubc9 = CyPet-Ubc9 (UniProt P63279); assay: FRET or BRET
[1] = molecular target: CyPet-NS1 (influenza virus) (UniProt P03496); assay: FRET or BRET

Sequence of UniProt P63279 (P63279 whole entry): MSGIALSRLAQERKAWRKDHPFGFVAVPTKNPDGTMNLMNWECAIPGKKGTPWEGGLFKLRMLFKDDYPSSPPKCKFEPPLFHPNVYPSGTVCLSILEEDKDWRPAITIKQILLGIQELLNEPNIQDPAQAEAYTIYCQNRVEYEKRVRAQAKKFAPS

| Substance | Kd (CyPet-Ubc9) [µM] | Kd [1] [µM] |
| --- | --- | --- |
| YPet-NS1 (from UniProt P03496 1-230) (natural protein) | 4.84 |  |
| YPet-PIAS1 (from UniProt O75925 1-651) (enzyme) |  | 2.96 |
